According to PMC4183468:

Biological target: VE-cadherin (Human CD-144, cadherin-5) (human) (UniProt P33151)
Test: ELISA; 0.01 µM VE-cadherin or control BSA coated on Linbro plate wells in HBSC overnight at 4°C, blocked with 1% BSA in DMEM; MBP fusions added for 1 hr; detected with anti-MBP antibody, OD655; VE-cadherin signal minus BSA and plastic binding

Sequence of UniProt P33151 (P33151 48-599): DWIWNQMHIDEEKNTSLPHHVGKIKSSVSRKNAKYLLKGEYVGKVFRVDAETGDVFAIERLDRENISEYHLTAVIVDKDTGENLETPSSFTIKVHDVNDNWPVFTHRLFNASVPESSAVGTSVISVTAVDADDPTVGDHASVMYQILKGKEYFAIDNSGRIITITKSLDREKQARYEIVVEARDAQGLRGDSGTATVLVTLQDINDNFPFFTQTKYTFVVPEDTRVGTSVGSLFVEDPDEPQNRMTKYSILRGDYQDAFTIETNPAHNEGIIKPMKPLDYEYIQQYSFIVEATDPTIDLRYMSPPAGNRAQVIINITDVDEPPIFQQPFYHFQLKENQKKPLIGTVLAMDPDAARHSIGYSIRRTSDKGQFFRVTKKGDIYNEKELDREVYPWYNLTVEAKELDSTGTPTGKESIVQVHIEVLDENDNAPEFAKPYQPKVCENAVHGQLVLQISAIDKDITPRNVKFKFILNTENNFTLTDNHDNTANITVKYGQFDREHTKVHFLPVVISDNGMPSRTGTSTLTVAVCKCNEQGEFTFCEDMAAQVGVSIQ

MBP fusion of L. interrogans candidate adhesin LIC11574 (natural protein)
Kd: 7.6 nM

MBP fusion of L. interrogans candidate adhesin LIC13411 (natural protein)
Kd: 0.4 nM
